Usually Kd stands for the concentration at which binding is half-saturated.

The results in this text go back to patent US20160368979A1 (CHEMOMAB, published 2016).

Assay [1] concerns the target T1, Eotaxin 2 (CCL24), human (human, UniProt O00175 27-119).
T1 construct: In the pulldown it is the circulating protein in human serum; also called Eox2; EOX-2
T1 sequence: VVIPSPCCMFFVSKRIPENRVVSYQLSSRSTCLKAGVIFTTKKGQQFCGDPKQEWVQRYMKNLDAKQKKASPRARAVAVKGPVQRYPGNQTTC
The assay is described as follows: Biacore SPR (eotaxin 2 immobilised on CM-5 chip) and ELISA. The method, then: The affinity constant of hCM101 or murine CM101 was evaluated using Biacore T100. This method uses Surface Plasmon Resonance (SPR) electrooptical phenomenon to measure the binding constants and on/off rates between binding partners. Eotaxin 2 was covalently immobilized on a surface of a CM-5 chip, and a solution of CM101 was passed over the surface. The changes in SPR angle were measured and enabled to determine the KD.
A general note: In SPR one partner is held on a chip, and binding of the other changes the refractive index at the surface.

Assay [2] has as its target T1, Eotaxin 2 (CCL24), human. In words: cell-based or functional assay.
In assay [3] the target is T2, RANTES (CCL5), human (human, UniProt P13501 24-91).
T2 sequence: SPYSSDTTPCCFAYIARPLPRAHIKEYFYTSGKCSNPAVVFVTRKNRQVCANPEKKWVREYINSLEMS
In words: cell-based or functional assay.

For assay [4], the target named is Eotaxin 1 (CCL11), human (human, UniProt P51671 24-97). The assay is described as follows: cell-based or functional assay.
Sequence of Eotaxin 1 (CCL11), human (P51671 24-97): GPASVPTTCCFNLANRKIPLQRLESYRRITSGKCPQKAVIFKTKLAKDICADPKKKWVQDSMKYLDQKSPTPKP

B1: hCM101 (fully humanized anti-eotaxin-2 monoclonal antibody, humanized variant VH1/VK3) (antibody, human IgG1, V domains shown)
VH: QIQLVQSGPELKKPGASVKVSCRASGYPFTNSGMNWVKQAPGKGLKWMGWINTYNGEPTYTDDFKGRFAFSLETSASTAYLQINNLRNEDTATYFCASHSYGSSYAMDNWGQGTSVTVSS
VL: DIVLTQSPDSLAVSLGERATINCKASQSVDYDGDSYMNWYQQKPGQPPKLLIYVASNLKSGIPARFSGSGSGTDFTLTISSLQPEDFATYYCQQSNEEPWTFGGGTKVEIK
notes: also called VH1/K3; fully humanized CM101
With B1, the Kd in assay [1] is 3 nM. In addition, the “migration of CD14 negative cells towards Eotaxin 1, 2 and Rantes, % reduction at the high dose” value in assay [2], in assay [3] and in assay [4] was approximately 90% each time.
